Substitutions are numbered along the chain they refer to.
B1: MYT12446 (hu7E6SVG variant, LCV substitutions at 60, 97) (antibody, V domains shown)
VH: QVQLQESGPGLVKPSETLSLTCTVSGGSISSYGVHWIRQPPGKGLEWIGVIWTSGVTDYNSALMGRVTISVDTSKNQFSLKLSSVTAADTAVYYCARDGDYDRYTMDYWGQGTLVTVSS
VL: DIVMTQSPDSLAVSLGERATINCRASKSVSTSGYSYMHWYQQKPGQPPKLLIYLASNLEHGVPDRFSGSGSGTDFTLTISSLQAEDVAVYYCQHSRHLPYTFGQGTKLEIK
notes: Full IgG in Expi293 supernatant
B2: MYT12469 (hu7E6SVG variant, LCV substitutions at 60, 97, 101) (antibody, V domains shown)
VH: B1 VH
VL: B1 VL with T101H
notes: as for B1
B3: MYT12466 (hu7E6SVG variant, LCV substitutions at 60, 93, 101) (antibody, V domains shown)
VH: B1 VH
VL: B1 VL with Q93H, H97E, T101H
notes: as for B1
B4: MYT12454 (hu7E6SVG variant, LCV substitutions at 59, 60, 93) (antibody, V domains shown)
VH: B1 VH
VL: B1 VL with E59H, Q93H, H97E
notes: as for B1
B5: MYT12449 (hu7E6SVG variant, LCV substitutions at 93, 97) (antibody, V domains shown)
VH: B1 VH
VL: B1 VL with H60S, Q93H
notes: as for B1
B6: MYT12450 (hu7E6SVG variant, LCV substitutions at 93, 101) (antibody, V domains shown)
VH: B1 VH
VL: B1 VL with H60S, Q93H, H97E, T101H
notes: as for B1
B7: MYT12455 (hu7E6SVG variant, LCV substitutions at 59, 60, 94 (Ala at 94)) (antibody, V domains shown)
VH: B1 VH
VL: B1 VL with E59H, H94A, H97E
notes: as for B1
B8: MYT12448 (hu7E6SVG variant, LCV substitutions at 93, 94 (Ala at 94)) (antibody, V domains shown)
VH: B1 VH
VL: B1 VL with H60S, Q93H, H94A, H97E
notes: as for B1
B9: MYT12447 (hu7E6SVG variant, LCV substitutions at 60, 101) (antibody, V domains shown)
VH: B1 VH
VL: B1 VL with H97E, T101H
notes: as for B1
B10: MYT12453 (hu7E6SVG variant, LCV substitutions at 97, 101) (antibody, V domains shown)
VH: B1 VH
VL: B1 VL with H60S, T101H
notes: as for B1
B11: MYT12451 (hu7E6SVG variant, LCV substitutions at 94, 97 (Ala at 94)) (antibody, V domains shown)
VH: B1 VH
VL: B1 VL with H60S, H94A
notes: as for B1
B12: MYT12472 (hu7E6SVG variant, LCV substitutions at 93, 97, 101) (antibody, V domains shown)
VH: B1 VH
VL: B1 VL with H60S, Q93H, T101H
notes: as for B1
B13: MYT11636 (antibody, V domains shown)
VH: QVQLVQSGAEVKKPGASVKVSCKASHYTFTTAGMQWVRQAPGQGLEWMGWINTHSGVPKYAEDFKGRVTISADTSTSTAYLQLSSLKSEDTAVYYCARSGFGSSYWYFDVWGQGTLVTVSS
VL: DIQMTQSPSSLSASVGDRVTITCKASQDVSTAVAWYQQKPGKAPKLLIYSASYRYTGVPSRFSGSGSGTDFTLTISSLQPEDFAVYYCQQHYITPLTFGQGTKLEIK
notes: IgG from supernatant; His at HCV position 26; also called datopotamab variant H1 01
B14: MYT11648 (antibody, V domains shown)
VH: B13 VH with H26G, N52H
VL: B13 VL
notes: IgG from supernatant; His at HCV position 52; also called datopotamab variant H2 03
B15: MYT11642 (antibody, V domains shown)
VH: B13 VH with H26G, A32H
VL: B13 VL
notes: IgG from supernatant; His at HCV position 32; also called datopotamab variant H1 07
B16: MYT11651 (antibody, V domains shown)
VH: B13 VH with H26G, S55H
VL: B13 VL
notes: IgG from supernatant; His at HCV position 55; also called datopotamab variant H2 06
B17: MYT11640 (antibody, V domains shown)
VH: B13 VH with H26G, T30H
VL: B13 VL
notes: IgG from supernatant; His at HCV position 30; also called datopotamab variant H1 05
B18: MYT11652 (antibody, V domains shown)
VH: B13 VH with H26G, G56H
VL: B13 VL
notes: IgG from supernatant; His at HCV position 56; also called datopotamab variant H2 07
B19: MYT11639 (antibody, V domains shown)
VH: B13 VH with H26G, F29H
VL: B13 VL
notes: IgG from supernatant; His at HCV position 29; also called datopotamab variant H1 04
B20: MYT11650 (antibody, V domains shown)
VH: B13 VH with H26G, H54A
VL: B13 VL
notes: IgG from supernatant; Ala at HCV position 54 (starting residue His); also called datopotamab variant H2 05
B21: MYT11641 (antibody, V domains shown)
VH: B13 VH with H26G, T31H
VL: B13 VL
notes: IgG from supernatant; His at HCV position 31; also called datopotamab variant H1 06
B22: MYT11637 (antibody, V domains shown)
VH: B13 VH with H26G, Y27H
VL: B13 VL
notes: IgG from supernatant; His at HCV position 27; also called datopotamab variant H1 02
B23: MYT11638 (antibody, V domains shown)
VH: B13 VH with H26G, T28H
VL: B13 VL
notes: IgG from supernatant; His at HCV position 28; also called datopotamab variant H1 03
B24: MYT11646 (antibody, V domains shown)
VH: B13 VH with H26G, W50H
VL: B13 VL
notes: IgG from supernatant; His at HCV position 50; also called datopotamab variant H2 01
B25: MYT11649 (antibody, V domains shown)
VH: B13 VH with H26G, T53H
VL: B13 VL
notes: IgG from supernatant; His at HCV position 53; also called datopotamab variant H2 04
B26: MYT11644 (antibody, V domains shown)
VH: B13 VH with H26G, M34H
VL: B13 VL
notes: IgG from supernatant; His at HCV position 34; also called datopotamab variant H1 09
B27: MYT11653 (antibody, V domains shown)
VH: B13 VH with H26G, V57H
VL: B13 VL
notes: IgG from supernatant; His at HCV position 57; also called datopotamab variant H2 08
B28: MYT11655 (antibody, V domains shown)
VH: B13 VH with H26G, K59H
VL: B13 VL
notes: IgG from supernatant; His at HCV position 59; also called datopotamab variant H2 10
B29: MYT11656 (antibody, V domains shown)
VH: B13 VH with H26G, Y60H
VL: B13 VL
notes: IgG from supernatant; His at HCV position 60; also called datopotamab variant H2 11
B30: MYT11647 (antibody, V domains shown)
VH: B13 VH with H26G, I51H
VL: B13 VL
notes: IgG from supernatant; His at HCV position 51; also called datopotamab variant H2 02
B31: MYT11654 (antibody, V domains shown)
VH: B13 VH with H26G, P58H
VL: B13 VL
notes: IgG from supernatant; His at HCV position 58; also called datopotamab variant H2 09
B32: MYT11657 (antibody, V domains shown)
VH: B13 VH with H26G, A61H
VL: B13 VL
notes: IgG from supernatant; His at HCV position 61; also called datopotamab variant H2 12

Experiments:
[1] = molecular target: T1, Human TROP2 Protein, His Tag (Acro Biosystems) (human, UniProt P09758 27-274); test: BLI (Octet)
T1 construct: Bought protein; also called TACSTD2; not shown: His tag
T1 sequence: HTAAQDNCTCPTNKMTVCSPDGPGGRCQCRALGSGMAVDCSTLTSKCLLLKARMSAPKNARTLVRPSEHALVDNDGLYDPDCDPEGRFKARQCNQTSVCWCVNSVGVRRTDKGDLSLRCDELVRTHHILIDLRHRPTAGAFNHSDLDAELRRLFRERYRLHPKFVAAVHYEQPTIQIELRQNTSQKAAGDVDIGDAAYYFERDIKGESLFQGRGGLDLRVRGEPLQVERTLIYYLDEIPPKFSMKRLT

[2] = molecular target: T2, Human TROP2 Protein, His Tag (human, UniProt P09758 27-274); test: BLI (Octet)
T2 construct: Bought protein; also called TACSTD2; not shown: His tag
T2 sequence (looked up): T1 sequence

Row | Binder | binding result [1] | binding result [2]
1 | B1 | binds | 
2 | B2 | binds | 
3 | B3 | binds | 
4 | B4 | binds | 
5 | B5 | binds | 
6 | B6 | binds | 
7 | B7 | binds | 
8 | B8 | binds | 
9 | B9 | binds | 
10 | B10 | binds | 
11 | B11 | binds | 
12 | B12 | binds | 
13 | B13 |  | binds
14 | B14 |  | binds
15 | B15 |  | binds
16 | B16 |  | binds

Row | Binder | binding result [1] | binding result [2]
17 | B17 |  | binds
18 | B18 |  | binds
19 | B19 |  | binds
20 | B20 |  | binds
21 | B21 |  | binds
22 | B22 |  | binds
23 | B23 |  | binds
24 | B24 |  | binds
25 | B25 |  | binds
26 | B26 |  | binds
27 | B27 |  | binds
28 | B28 |  | binds
29 | B29 |  | binds
30 | B30 |  | binds
31 | B31 |  | binds
32 | B32 |  | binds

Reference: patent publication US20260274985A1 (MYTHIC THERAPEUTICS, published 2026)
